In US20110293610A1 (published 2011):
Positions count from the first letter of the chain named.

T1: TNF-beta (human, UniProt P01374 35-205)
T1 construct: also called TNFβ; Tumour Necrosis Factor-beta
T1 sequence (looked up): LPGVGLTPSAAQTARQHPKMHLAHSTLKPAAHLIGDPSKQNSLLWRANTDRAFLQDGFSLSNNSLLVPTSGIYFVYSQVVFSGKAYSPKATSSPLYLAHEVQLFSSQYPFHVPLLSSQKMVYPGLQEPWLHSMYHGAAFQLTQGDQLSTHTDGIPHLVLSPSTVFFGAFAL

T2: Fas ligand (human, UniProt P48023 134-281, limits assumed)
T2 sequence (looked up): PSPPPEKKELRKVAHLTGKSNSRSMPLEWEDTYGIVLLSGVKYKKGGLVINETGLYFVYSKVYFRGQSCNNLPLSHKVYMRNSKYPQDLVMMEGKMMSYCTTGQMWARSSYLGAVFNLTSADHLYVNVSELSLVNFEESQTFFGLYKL

B1: I051C04 (scFv)
scFv: QVQLQQSGAEVKKPGSSVKVSCRTSGGTFSNYGLSWVRQAPGQGLEWMGGVIPISSTIKYGQKFQDRLTIAADDLTNTTFMELSSLRPEDTAVYYCARAATTSQKHNKYAYYFYGMDVWGQGTMVTVSSGGGGSGGGGSGGGGSAQSALTQPASVSGSPGQSITISCTGTSSDVGGYNYVSWYQQHPGKAPKLMIYEVSNRPSGVSNRFSGSKSGNTASLTISGLQAEDEADYYCSSYTSSSTLVFGGGTKVTVLG
notes: also called 1051C04
B2: I061E07 (scFv)
scFv: QVQLQQSGAEVKKTGASVKVSCKASGYIFADYYVHWVRQAAGQGLEWMGWINPNTGSTKYAQKFQDRVTMTRDTSIKTVYMELRRLRSDDTALYYCARATYDPLTGYSFDGFDIWGKGTMVTVSSGGGGSGGGGSGGGGSQSVLTQPPSASGTPGQRVTISCSGSSSNIGSNTVNWYQRLPGAAPQLLIYNNDQRPSGIPDRFSGSKSGTSGSLVISGLQSEDEADYYCASWDDSLNGRVFGGGTKLTVLG
B3: I029D07 (scFv)
scFv: QVQLQQSGAEVKKPGSSVKVSCKASGYTFTKYTMHWVRQAPGQGPEWMGWINGGSGDTKYSRKFQGRVTITKDTSASAAYMELSSLGSEDTALYYCARATYDPLTGYSFDGFDIWGQGTLVTVSSGGGGSGGGGSGGGGSQSVLTQPASVSGSPGQSITISCTGTSSDVGGYNYVSWYQQHPGKAPKLMIYDVSKRPSGVPDRFSGSKSGNTASLTISGLQAEDEGDYYCSSYAGPSRVFGGGTKVEIKR
B4: I031F02 (scFv)
scFv: QVQLVQSGAEVRKPGSSVKVSCKASGGSFSSHVFSWVRQAPGQGLEWVGGITPKFATPNYAQKFQHRVTITADELTRTVFMDLSGLRSEDTAVYYCARGYDSSAFRAFDIWGQGTMVTVSSGGGGSGGGGSGGGGSAQSVLTQPPSVSGAPGQRVTISCTGSSSNIGAGYDVQWYQQLPGTAPKLLIHGNNNRPSGVPDRFSGSKSGTSASLAITGLQDEDEADYYCQSYDSSLSFSGYVFGTGTKVTVLG
B5: I028A06 (scFv)
scFv: QVQLVESGGGLIQPGGSLRLSCAASGFSFGSYAMSWIRQAPGKGLEWVSTSTGRGGSTYYADSVKGRFTISRDNAKNSLYLQMNSLRAEDAAVYYCARGGDYDILTGLYYYGMDVWGKGTMVTVSSGGGGSGGGGSGGGGSSYVLTQPPSVSGTPGQRVTISCSGGRSNIGSNTVKWYQQLPGTAPKLLIYGNDQRPSGVPDRFSGSKSGTSASLAITGVQAEDEADYYCQSYDSSLRGSRVFGTGTKVTVLG
B6: I008B01 (scFv)
scFv: QVQLVQSGAEVMKPGASVKVSCKASGYNFNNYAMQWVRQAPGQRLEWMGWIVPGNGKTKYSQKFQDRVTIARDTSASTVYMELSSLTSEDTAMYYCARATYDPLTGYSFDGFDIWGQGTTVTVSSGGGGSGGGGSGGGGSQSVLTQPASVSGSPGQSITISCTGTSSDVGGYNYVSWYQQHPGKAPKLMIYEGSKRPSGVSNRFSGSKSGNTASLTISGLQAEDEADYYCSSYTTRSTRVFGGGTKLTVLG
B7: I031C03 (scFv)
scFv: QMQLVQSGAEVRKPGSSVKVSCKASGGSFSSHVFSWVRQAPGQGLEWVGGITPKFATPNYAQKFQHRVTITADELTRTVFMDLSGLRSEDTAVYYCARGYDSSAFRAFDIWGQGTLVTVSSGGGGSGGGGSGGGGSAQSVLTQPPSVSAAPGQKVTISCSGSSSNIGNNYVSWYQQFPGTAPKLLIYDNNNRPSGVPDRFSGSKSGTSATLGITGLQTGDEADYYCGTWDRSLSVVVFGGGTKVTVLG
B8: I022E02 (scFv)
scFv: QVQLVQSGAEVKKPGASVMVSCKASGYTFSTYAVHWVRQAPGQGLEWMGRINAGNGYTKYSQKFQGRVTITKDTSASAAYMELSSLGSEDTALYYCARATYDPLTGYSFDGLDIWGKGTMVTVSSGGGGSGGGGSGGGGSQSVLTQPASVSGSPGQSITISCTGTSSDVGGYNYVSWYQQHPGKAPKLMIYEGSKRPSGVSNRFSGSKSGNTASLTISGLQAEDEADYYCSSYTTRSTRVFGGGTKLTVLG
B9: I008C03 (scFv)
scFv: QMQLVRSGGGVVQPGRSLRLSCAASGFTFSSYGMHWVRQAPGKGLEWVSVTYSGGNTNYADSVRGRFTISRDNSKNTLYLQMNSLRAEDTAVYYCAREGSYDILTGYYVGVGRMDVWGKGTLVTVSSGGGGSGGGGSGGGGSSELTQDPAVSVALGQTVRITCQGDSLRSYYTNWFQQKPGQAPLLVVYAKNKRPSGIPDRFSGSSSGNTASLTITGAQAEDEADYYCNSRDSSGNHVVFGGGTKLTVLG
B10: I018C02 (scFv)
scFv: QVQLQQSGSELKKPGASVIVSCKVSGYSLTKMSMHWVRQSPGEGLEWVGGIDPETRQPVYAQKFQGRVTITKDTSASAAYMELSSLGSEDTALYYCARATYDPLTGYSFDGFDIWGQGTLVTVSSGGGGSGGGGSGGGGSQSVLTQPASVSGSPGQSITISCTGTSSDVGGYNYVSWYQQHPGKAPKLMIYEGSKRPSGVSNRFSGSKSGNTASLTISGLQAEDEADYYCSSYTTRSTRVFGGGTKLTVLG
B11: I016F04 (scFv)
scFv: B10 scFv with I19K
B12: I008C02 (scFv)
scFv: AVQLQESGPGLVKPSETLSLTCSVSGASMTTNKFYWSWIRQPPGKGLEWIGNINYSKSTNYNPSLKSRITISVDTSKNQLSLKLNSVTAADTAVYYCARHVRDYDILTGYYRGHYFDYWGQGTMVTVSSGGGGSGGGGSGGGGSQSVLTQPASVSGSPGQSITISCTGTSSDVGGYNYVSWYQQHPGKAPKLMIYEGSKRPSGVSNRFSGSKSGNTASLTISGLQAEDEADYYCSSYTTRSTRVFGGGTKLTVLG
B13: I007H08 (scFv)
scFv: QVQLQQSGPGLVKPSQILSLTCAISGDSVASNGAAWNWIRQSPSRGLEWLGRTYYRSKWYVDYAVSVKSRITINPDTSKNQFSLQLNSVTPEDTAVYYCARDRYDILTGYYYYGMDVWGQGTMVTVSSGGGGSGGGGSGGGGSQSALTQPASVSGSRGQSITISCTGTTGDVGGYDYVSWYQQHPGKAPKLLIYGNSNRPSGVPDRFSASKSGNTASLTISGLQAEDEADYFCNTYAPPGIIMFGGGTKLTVLG
B14: I008A11 (scFv)
scFv: B13 scFv with N234S
B15: I006D08 (scFv)
scFv: QVQLQQSGAEVKKPGSSVRVSCKASGGTFNNNAINWVRQAPGQGLEWMGGIIPMFGTAKYSQNFQGRVAITADESTSTASMELSSLRSEDTAVYYCARSRDLLLFPHYGMDVWGRGTMVTVSSGGGGSGGGGSGGGGSAFSSELTQDPAVSVALGQTVRVTCQGDSLRSYYASWYQQKPGQAPVLVIYGKNNRPSGIPDRFSGSSSGNTASLTITGAQAEDEADYYCNSRDSSGNHWVFGGGTELTVLG
B16: I061H01 (scFv)
scFv: QVQLVQSGGGLVKPGGSLRLSCAASGFTFSNAWMSWVRQAPGKGLQWVGRIKSKTDGGTTDYAAPVKGRFTISRDDSKNTLYLQMNSLKTEDTAVYYCTTFNPTYDILTGYYIGGYFQHWGQGTMVTVSSGGGGSGGGGSGGGGSQSVLTQPASVSGSPGQSITISCTGTSSDVGGYNYVSWYQQHPGKAPKLMIYEGSKRPSGVSNRFSGSKSGNTASLTISGLQAEDEADYYCSSYTTRSTRVFGGGTQLTVLG
notes: also called 1061H01
B17: I006D07 (scFv)
scFv: EVQLVESGGGVVQPGGSLRLSCAASGFTVNSYAMHWVRQAPGKGLQWVAVIPYDGSKKYYADSVKGRFTVSRDNSKNTLYLQMNSLRAEDTAVYYCARSHYDILTGLNYWYFDLWGRGTLVTVSSGGGGSGGGGSGGGGSSELTQDPAVSVALGQTVRITCQGDSLRSYYASWYQQKPGQAPVLVIYGKNNRPSGIPDRFSGSSSGNTASLTITGAQAEDEADYYCNSRGSSGNHVVFGGGTKLTVLG

biological target: T3, B Lymphocyte Stimulator, soluble form (human) (human, UniProt Q9Y275 134-285, biotinylated with NHS-biotin where used as biotinylated B Lymphocyte Stimulator); assay: phage competition ELISA
T3 construct: Coated on plastic, captured on streptavidin plates, amine-coupled to a CM5 chip or free in solution, depending on the assay; also called BLyS; immobilized B Lymphocyte Stimulator

Row | binding result | Binder
1 | binds | B1

biological target: T4, biotinylated B Lymphocyte Stimulator, soluble form (human, UniProt Q9Y275 134-285, biotinylated with NHS-biotin, molar ratio 20:1 biotin:protein); assay: phage scFv, receptor binding inhibition on IM9 cells
T4 construct: also called bio-B Lymphocyte Stimulator; free B Lymphocyte Stimulator
Description: Fifty-five μl of each appropriate phage supernatant was added to each well and the final volume in each well was 65 μl. Plates were then incubated at room temperature for 30 minutes.
Plates were washed three times in PBST and three times in PBS, tapped dry and 50 μl of streptavidin-Delfia (Wallac) was added to each well at 1:1000 dilution in the Manufacturer's assay buffer. The plates were then incubated at room temperature for 1 hour and washed six times in Delfia wash solution (Wallac). After tapping the plates dry, 100 μl per well of Delfia enhancement solution (Wallac) was added. The plates were gently tapped to encourage micelle formation, incubated at room temperature for 10 minutes, and fluorescence read on a Wallac 1420 workstation at […].

Row | binding result | Binder
2 | binds | B2
3 | binds | B3
4 | binds | B4
5 | binds | B5
6 | binds | B6
7 | binds | B7
8 | binds | B8
9 | binds | B9
10 | binds | B10
11 | binds | B11
12 | binds | B12
13 | binds | B13
14 | binds | B14
15 | binds | B15
16 | binds | B16
17 | binds | B17

biological target: T5, membrane-bound B Lymphocyte Stimulator on U937 plasma membrane preparations (human, UniProt Q9Y275 1-285); assay: phage ELISA
T5 construct: Natural protein in plasma membrane fractions of the human cell line U937 coated on ELISA plates; also called U937 plasma membranes; U937 membranes

Row | binding result | Binder
18 | binds | B1

biological target: T1, TNF-beta; assay: phage ELISA

Row | binding result | Binder
19 | no binding | B1

biological target: T2, Fas ligand; assay: phage ELISA

Row | binding result | Binder
20 | no binding | B1

biological target: T6, TRAIL (human, UniProt P50591 114-281); assay: phage ELISA
T6 construct: also called TNF-related apoptosis inducing ligand
T6 sequence (P50591 114-281 limits assumed): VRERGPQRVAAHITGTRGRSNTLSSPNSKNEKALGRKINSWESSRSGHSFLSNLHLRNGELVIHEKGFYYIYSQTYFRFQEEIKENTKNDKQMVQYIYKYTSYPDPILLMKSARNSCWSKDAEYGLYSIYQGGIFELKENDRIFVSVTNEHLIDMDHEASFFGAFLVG

Row | binding result | Binder
21 | no binding | B1

biological target: T7, TNF-alpha (human, UniProt P01375 77-233); assay: phage ELISA
T7 construct: also called TNFα; TNF-α
T7 sequence (P01375 77-233 limits assumed): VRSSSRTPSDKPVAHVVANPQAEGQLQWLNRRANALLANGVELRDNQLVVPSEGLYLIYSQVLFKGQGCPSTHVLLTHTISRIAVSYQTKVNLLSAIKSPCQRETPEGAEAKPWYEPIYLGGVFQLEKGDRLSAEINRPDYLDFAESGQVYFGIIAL

Row | binding result | Binder
22 | no binding | B1
